Assay [1] addresses T1, Recombinant mouse CTLA-4/human IgG1 chimera (R&D Systems) (mouse; human, UniProt P09793 36-162, limits assumed).
T1 construct: Bought reagent, immobilised in 96-well plates; also called recombinant mCTLA-4/Fc; recombinant CTLA4 protein; not shown: human IgG1 portion (Fc) of the bought chimera
Nature of the assay: ELISA; mouse CTLA-4/human IgG1 chimera coated at 1 or 5 µg/mL, HEK293 conditioned medium (168 ng/mL), anti-mouse IgG-HRP, OD 450 nm. How it is done: (§1) Plasmid encoded anti-CTLA4 scFv bound to recombinant CTLA4 protein. Transfection-derived secreted anti-CTLA4 (scFv) were evaluated for their binding capacity to CTLA-4. Recombinant mouse CTLA-4/human IgG1 chimera (R&D Systems) were immobilized in 96-well plates (1 or 5 μg/mL, or […]) for 18 hr at room temperature. Wells were washed three times with 0.1% Tween in PBS and blocked with 1% BSA in PBS. Conditioned medium from HEK293 cells transfected with 9H10-scFv (168 ng/mL) or 9D9-scFv (130 ng/mL) was added to the wells, and incubated for 2 h at room temperature. Wells were washed three times, and anti-mouse IgG-horseradish peroxidase (Jackson ImmunoResearch, 0.2 μg/mL) were added and incubated for 1.5 hours at room temperature. Wells were again washed three times, developed with HRP Substrate Reagent (R&D Systems) and stopped with Stop Solution, 2N sulfuric acid (R&D Systems). Optical density of each well was measured at 450 nm.
On the technique in general: In an ELISA, binding on a coated surface is turned into a signal by an enzyme label.

The target of assay [2] is T1, Recombinant mouse CTLA-4/human IgG1 …. Nature of the assay: ELISA; mouse CTLA-4/human IgG1 chimera coated at 1 or 5 µg/mL, HEK293 conditioned medium (130 ng/mL), anti-mouse IgG-HRP, OD 450 nm. As to the method:
as §1

B1: Igκ-HA-9H10 VLC-Linker-9H10 VHC-Linker-mIgG1 Fc domain (anti-CTLA-4 scFv) (Fc fusion)
scFv: YPYDVPDYAGAQPARSDIVMTQSPSSLAVSVGEKVTISCKSSQSLLYGSSHYLAWYQQKVGQSPKLLIYWASTRHTGIPDRFIGSGSGTDFTLSLSSVQAEDMADYFCQQYFSTPWTFGAGTRVEIKSGSGGGSGGGSGGGSQVQLLQSESELVKPGASVKLSCKTSGYTFTDYYIHWVKQKPGQGLEWIGLINPNNDGTNYNQKFQGKATLTADKSSSTAYMELNSLTFDDSVIYFCARASSRLRMARTTSDYYAMDYWGQGIQVTVSSVDSSGSGGCKPCICTVPEVSSVFIFPPKPKDVLTITLTPKVTCVVVDISKDDPEVQFSWFVDDVEVHTAQTQPREEQFNSTFRSVSELPIMHQDWLNGKEFKCRVNSAAFPAPIEKTISKTKGRPKAPQVYTIPPPKEQMAKDKVSLTCMITDFFPEDITVEWQWNGQPAENYKNTQPIMDTDGSYFVYSKLNVQKSNWEAGNTFTCSVLHEGLHNHHTEKSLSHSPGK
notes: Secreted into the conditioned medium of transfected HEK293 cells (168 ng/mL) and used as such; also called 9H10-scFv; plasmid encoded anti-CTLA4 scFv
As to B1, in assay [1], the binding result is recorded as “binds”.

B2: Igκ-HA-9D9 VLC-Linker-9D9 VHC-Linker-mIgG1 Fc domain (anti-CTLA-4 scFv) (Fc fusion)
scFv: YPYDVPDYAGAQPARSDIVMTQTTLSLPVSLGDQASISCRSSQSIVHSNGNTYLEWYLQKPGQSPKLLIYKVSNRFSGVPDRFSGSGSGTDFTLKISRVEAEDLGVYYCFQGSHVPYTFGGGTKLEIKRADAAPTVSGSGGGSGGGSGGGSEAKLQESGPVLVKPGASVKMSCKASGYTFTDYYMNWVKQSHGKSLEWIGVINPYNGDTSYNQKFKGKATLTVDKSSSTAYMELNSLTSEDSAVYYCARYYGSWFAYWGQGTLITVSTAKTTPPSVYPLAPVDSSGSGGCKPCICTVPEVSSVFIFPPKPKDVLTITLTPKVTCVVVDISKDDPEVQFSWFVDDVEVHTAQTQPREEQFNSTFRSVSELPIMHQDWLNGKEFKCRVNSAAFPAPIEKTISKTKGRPKAPQVYTIPPPKEQMAKDKVSLTCMITDFFPEDITVEWQWNGQPAENYKNTQPIMDTDGSYFVYSKLNVQKSNWEAGNTFTCSVLHEGLHNHHTEKSLSHSPGK
notes: Secreted into the conditioned medium of transfected HEK293 cells (130 ng/mL) and used as such; also called 9D9-scFv; plasmid encoded anti-CTLA4 scFv
As for B2, in assay [2], the binding result is “binds”.

Values taken from US20230277624A1 (ONCOSEC MEDICAL, published 2023).
